The record followed here is ChEMBL document CHEMBL1629679, “Extended-spectrum cephalosporinases in Pseudomonas aeruginosa” (2009).

Substrate in data set [1]: CC(C)(O/N=C(\C(=O)N[C@@H]1C(=O)N2C(C(=O)[O-])=C(C[n+]3ccccc3)CS[C@H]12)c1csc(N)n1)C(=O)O
Put plainly: (§1) Ratio of Kcat to Km for Pseudomonas aeruginosa PDC-5 by spectrophotometer.

Substrate in data set [2]: CCN1CCN(C(=O)N[C@@H](C(=O)N[C@@H]2C(=O)N3[C@@H]2SC(C)(C)[C@@H]3C(=O)O)c2ccccc2)C(=O)C1=O
The description is as §1.

Substrate in data set [3]: CC1(C)S[C@@H]2[C@H](NC(=O)Cc3ccccc3)C(=O)N2[C@H]1C(=O)O
Described as §1.

Substrate in data set [4]: C[C@@H](O)[C@H]1C(=O)N2C(C(=O)O)=C(SCCNC=N)C[C@H]12
The data set is described as §1.

Substrate in data set [5]: CO/N=C(\C(=O)N[C@@H]1C(=O)N2C(C(=O)O)=C(COC(C)=O)CS[C@H]12)c1csc(N)n1
The data set is described as §1.

Substrate in data set [6]: CC(C)(O/N=C(\C(=O)N[C@@H]1C(=O)N2C(C(=O)[O-])=C(C[n+]3ccccc3)CS[C@H]12)c1csc(N)n1)C(=O)O
Kind of data set: (§2) Activity at Pseudomonas aeruginosa PDC-5 by spectrophotometer.

Substrate in data set [7]: CCN1CCN(C(=O)N[C@@H](C(=O)N[C@@H]2C(=O)N3[C@@H]2SC(C)(C)[C@@H]3C(=O)O)c2ccccc2)C(=O)C1=O
The description is as §2.

Substrate in data set [8]: CC1(C)S[C@@H]2[C@H](NC(=O)Cc3ccccc3)C(=O)N2[C@H]1C(=O)O
The data set is described as §2.

Substrate in data set [9]: C[C@@H](O)[C@H]1C(=O)N2C(C(=O)O)=C(SCCNC=N)C[C@H]12
Described as §2.

Substrate in data set [10]: CO/N=C(\C(=O)N[C@@H]1C(=O)N2C(C(=O)O)=C(COC(C)=O)CS[C@H]12)c1csc(N)n1
The description is as §2.

Substrate in data set [11]: CO/N=C(\C(=O)N[C@@H]1C(=O)N2C(C(=O)[O-])=C(C[N+]3(C)CCCC3)CS[C@H]12)c1csc(N)n1
Described as §2.

Substrate in data set [12]: CC(C)(O/N=C(\C(=O)N[C@@H]1C(=O)N2C(C(=O)[O-])=C(C[n+]3ccccc3)CS[C@H]12)c1csc(N)n1)C(=O)O
Put plainly: (§3) Activity at Pseudomonas aeruginosa PDC-1 by spectrophotometer.

Substrate in data set [13]: CCN1CCN(C(=O)N[C@@H](C(=O)N[C@@H]2C(=O)N3[C@@H]2SC(C)(C)[C@@H]3C(=O)O)c2ccccc2)C(=O)C1=O
The data set is described as §3.

Substrate in data set [14]: CC1(C)S[C@@H]2[C@H](NC(=O)Cc3ccccc3)C(=O)N2[C@H]1C(=O)O
The data set is described as §3.

Substrate in data set [15]: C[C@@H](O)[C@H]1C(=O)N2C(C(=O)O)=C(SCCNC=N)C[C@H]12
Described as §3.

Substrate in data set [16]: CO/N=C(\C(=O)N[C@@H]1C(=O)N2C(C(=O)O)=C(COC(C)=O)CS[C@H]12)c1csc(N)n1
The data set is described as §3.

Substrate in data set [17]: CO/N=C(\C(=O)N[C@@H]1C(=O)N2C(C(=O)[O-])=C(C[N+]3(C)CCCC3)CS[C@H]12)c1csc(N)n1
The description is as §3.

Substrate in data set [18]: CC(C)(O/N=C(\C(=O)N[C@@H]1C(=O)N2C(C(=O)[O-])=C(C[n+]3ccccc3)CS[C@H]12)c1csc(N)n1)C(=O)O
Kind of data set: (§4) Ratio of Kcat to Km for Pseudomonas aeruginosa PDC-1 by spectrophotometer.

Substrate in data set [19]: CCN1CCN(C(=O)N[C@@H](C(=O)N[C@@H]2C(=O)N3[C@@H]2SC(C)(C)[C@@H]3C(=O)O)c2ccccc2)C(=O)C1=O
The data set is described as §4.

Substrate in data set [20]: CC1(C)S[C@@H]2[C@H](NC(=O)Cc3ccccc3)C(=O)N2[C@H]1C(=O)O
Described as §4.

Substrate in data set [21]: C[C@@H](O)[C@H]1C(=O)N2C(C(=O)O)=C(SCCNC=N)C[C@H]12
The data set is described as §4.

Substrate in data set [22]: CO/N=C(\C(=O)N[C@@H]1C(=O)N2C(C(=O)O)=C(COC(C)=O)CS[C@H]12)c1csc(N)n1
The description is as §4.

Substrate in data set [23]: CO/N=C(\C(=O)N[C@@H]1C(=O)N2C(C(=O)[O-])=C(C[N+]3(C)CCCC3)CS[C@H]12)c1csc(N)n1
The description is as §4.

Where a chain is given by its changes, count along the chain named.

B1: Beta-lactamase (Pseudomonas aeruginosa), Q8RL90 (protein)
chain: MRDTRFPCLCGIAASTLLFATTPAIAGEAPADRLKALVDAAVQPVMKANDIPGLAVAISLKGEPHYFSYGLASKEDGRQVTPETLFEIGSVSKTFTATLAGYALAQDKMRLDDRASQHWPALQGSRFDGISLLDLATYTAGGLPLQFPDSVQKDQAQIRDYYRQWQPTYAPGSQRLYSNPSIGLFGYLAARSLGQPFERLMEQQVFPALGLEQTHLDVPEAALAQYAQGYGKDDRPLRVGPGPLDAEGYGVKTSAADLLRFVDANLHPERLDRPWAQALDATHRGYYKVGDMTQGLGWEAYDWPISLKRLQAGNSTPMALQPHRIARLPAPQALEGQRLLNKTGSTNGFGAYVAFVPGRDLGLVILANRNYPNAERVKIAYAILSGLEQQGKVPLKR
Usually kcat/Km stands for the turnover number divided by the Michaelis constant. A word on the Km: it is the concentration of substrate that gives half-maximal velocity. By kcat is commonly meant the number of substrate molecules converted per active site and unit of time at saturation. On to B1, for which the kcat/Km in data set [1] is 500000 M⁻¹ s⁻¹; in data set [2] it was 125000 M⁻¹ s⁻¹; in [3] it was 860000 M⁻¹ s⁻¹; in data set [4] it was 6e+06 M⁻¹ s⁻¹; in data set [5], 20000 M⁻¹ s⁻¹. In addition, the Km in data set [6] was found to be 30 µM; in data set [7], 40 µM; in [8], 35 µM; in [9] it was 15 µM; in data set [10], 5 µM; in [11], 1700 µM. Also, the kcat in data set [6] is 0.015 s⁻¹; in data set [7], 5 s⁻¹; in data set [8] it was 30 s⁻¹; in data set [9] it was 0.1 s⁻¹; in data set [10], 0.1 s⁻¹.

B2: Beta-lactamase (Pseudomonas aeruginosa (strain ATCC 15692 / PAO1 / 1C / PRS 101 / LMG12228)), P24735 (protein)
chain: B1 chain with Q79R, A105T
As for B2, the kcat came out at 0.004 s⁻¹ in data set [12]; 2 s⁻¹ in [13]; 0.01 s⁻¹ in [15]; 0.02 s⁻¹ in [16]; 0.08 s⁻¹ in data set [17]. Besides, the Km in [13] was found to be 100 µM; in data set [14], 35 µM; in data set [15], 20 µM; in [16] it was 6 µM; in data set [17], 800 µM. Further, the kcat/Km in data set [18] stood at 200000 M⁻¹ s⁻¹; in [19], 50000 M⁻¹ s⁻¹; in data set [20], 430000 M⁻¹ s⁻¹; in data set [21], 500000 M⁻¹ s⁻¹; in data set [22], 3000 M⁻¹ s⁻¹; in [23] it was 100000 M⁻¹ s⁻¹.
